Values quoted from earlier work, collected in patent US20060104951A1, “Akt and regulation of RA synovial fibroblast apoptosis” (priority 2004, published 2006).

Tested on: Akt
Settings: Cell: HL-60

B1: Focal adhesion kinase: pathway kinase whose overexpression activates Akt in HL-60 (protein, UniProt Q05397 2-1052, looked up)
Focal adhesion kinase 1: AAAYLDPNLNHTPNSSTKTHLGTGMERSPGAMERVLKVFHYFESNSEPTTWASIIRHGDATDVRGIIQKIVDSHKVKHVACYGFRLSHLRSEEVHWLHVDMGVSSVREKYELAHPPEEWKYELRIRYLPKGFLNQFTEDKPTLNFFYQQVKSDYMLEIADQVDQEIALKLGCLEIRRSYWEMRGNALEKKSNYEVLEKDVGLKRFFPKSLLDSVKAKTLRKLIQQTFRQFANLNREESILKFFEILSPVYRFDKECFKCALGSSWIISVELAIGPEEGISYLTDKGCNPTHLADFTQVQTIQYSNSEDKDRKGMLQLKIAGAPEPLTVTAPSLTIAENMADLIDGYCRLVNGTSQSFIIRPQKEGERALPSIPKLANSEKQGMRTHAVSVSETDDYAEIIDEEDTYTMPSTRDYEIQRERIELGRCIGEGQFGDVHQGIYMSPENPALAVAIKTCKNCTSDSVREKFLQEALTMRQFDHPHIVKLIGVITENPVWIIMELCTLGELRSFLQVRKYSLDLASLILYAYQLSTALAYLESKRFVHRDIAARNVLVSSNDCVKLGDFGLSRYMEDSTYYKASKGKLPIKWMAPESINFRRFTSASDVWMFGVCMWEILMHGVKPFQGVKNNDVIGRIENGERLPMPPNCPPTLYSLMTKCWAYDPSRRPRFTELKAQLSTILEEEKAQQEERMRMESRRQATVSWDSGGSDEAPPKPSRPGYPSPRSSEGFYPSPQHMVQTNHYQVSGYPGSHGITAMAGSIYPGQASLLDQTDSWNHRPQEIAMWQPNVEDSTVLDLRGIGQVLPTHLMEERLIRQQQEMEEDQRWLEKEERFLKPDVRLSRGSIDREDGSLQGPIGNQHIYQPVGKPDPAAPPKKPPRPGAPGHLGSLASLSSPADSYNEGVKLQPQEISPPPTANLDRSNDKVYENVTGLVKAVIEMSSKIQPAPPEEYVPMVKEVGLALRTLLATVDETIPLLPASTHREIEMAQKLLNSDLGELINKMKLAQQYVMTSLQQEYKKQMLTAAHALAVDAKNLLDVIDQARLKMLGQTRPH
Action: Activates Akt
